Data published in patent US20200079833A1 (AstraZeneca / MedImmune, published 2020).
Starred links: 1 amine or outer side, 2 acyl side, 3 side chain; linkers in the order of their positions; H or OH if unused. Non-standard residues stand in square brackets, D forms with d. Groups on a side chain read outwards from the residue. No end group written: not given here. *: point of attachment. γGlu = O=C(O)[C@H](CCC(=O)[*:2])N[*:1]; Stearoyl = CCCCCCCCCCCCCCCCCC(=O)*; αMeF = C[C@](N)(Cc1ccccc1)C(=O)O; αMeK = C[C@](N)(CCCCN)C(=O)O; αMeS = C[C@](N)(CO)C(=O)O; Aib = CC(C)(N)C(=O)O; Ahx = NCCCCCC(=O)O

T1: glucose-dependent insulinotropic peptide (gastric inhibitory polypeptide) receptor (GIPR) (human, UniProt P48546 22-466)
T1 sequence (looked up): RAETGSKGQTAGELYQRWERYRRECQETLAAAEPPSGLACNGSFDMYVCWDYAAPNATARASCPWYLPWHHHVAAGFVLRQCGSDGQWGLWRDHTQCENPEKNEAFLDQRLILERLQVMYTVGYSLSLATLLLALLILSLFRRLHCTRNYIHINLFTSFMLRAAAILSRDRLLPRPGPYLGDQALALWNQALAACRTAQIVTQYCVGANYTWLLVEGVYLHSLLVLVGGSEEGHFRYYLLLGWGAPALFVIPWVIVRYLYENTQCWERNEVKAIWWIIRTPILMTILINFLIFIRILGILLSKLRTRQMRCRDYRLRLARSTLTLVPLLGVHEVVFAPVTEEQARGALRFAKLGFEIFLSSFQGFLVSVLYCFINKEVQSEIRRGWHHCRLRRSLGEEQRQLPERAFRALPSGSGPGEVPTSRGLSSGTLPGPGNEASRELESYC


Experiments:
Assay in all cases: cell-based or functional assay
glucagon receptor (GCGR) = glucagon receptor (GCGR) (human, UniProt P47871 26-477)
GLP-1 receptor (GLP-1R) = GLP-1 receptor (GLP-1R) (human, UniProt P43220 24-463)
[1] = target: T1, glucose-dependent insulinotropic …

Chain of glucagon receptor (GCGR) (P47871 26-477): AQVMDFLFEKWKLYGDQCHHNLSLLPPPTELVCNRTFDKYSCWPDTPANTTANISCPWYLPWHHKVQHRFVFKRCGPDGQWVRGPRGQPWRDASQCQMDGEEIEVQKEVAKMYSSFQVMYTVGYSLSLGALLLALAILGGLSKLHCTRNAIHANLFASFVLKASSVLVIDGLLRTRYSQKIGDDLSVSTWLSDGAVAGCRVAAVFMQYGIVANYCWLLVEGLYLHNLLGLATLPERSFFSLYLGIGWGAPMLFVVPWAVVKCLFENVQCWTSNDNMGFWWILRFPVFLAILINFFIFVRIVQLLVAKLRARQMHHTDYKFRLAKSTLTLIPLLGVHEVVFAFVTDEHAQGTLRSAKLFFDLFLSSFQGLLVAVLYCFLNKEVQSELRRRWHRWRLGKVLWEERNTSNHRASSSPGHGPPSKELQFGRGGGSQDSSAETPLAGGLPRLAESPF

Row | Binder | Primary assay EC50 (cAMP), Gluc-R, first run (glucagon receptor (GCGR)) [nM] | Primary assay EC50 (cAMP), Gluc-R, second run (glucagon receptor (GCGR)) [nM] | Primary assay EC50 (cAMP), GLP-1R n1 (GLP-1 receptor (GLP-1R)) [nM] | Primary assay EC50 (cAMP), GLP-1R n2 (GLP-1 receptor (GLP-1R)) [nM] | Primary assay EC50 (cAMP), Mean pM GLP-1R (GLP-1 receptor (GLP-1R)) [pM] | Primary assay EC50 (cAMP), GIP-R, first run [1] [nM] | Primary assay EC50 (cAMP), GIP-R, second run [1] [nM]
1 | H[Aib]EGS[αMeF]TSDV[αMeS]S[αMeF]LEGEAA[αMeK]E[αMeF]IA[αMeF]VVK([Ahx-Ahx-Stearoyl])GG-NH2 (N-terminus assumed; SMILES CCCCCCCCCCCCCCCCCC(=O)NCCCCCC(=O)NCCCCCC(=O)NCCCC[C@H](NC(=O)[C@@H](NC(=O)[C@@H](NC(=O)[C@](C)(Cc1ccccc1)NC(=O)[C@H](C)NC(=O)[C@@H](NC(=O)[C@](C)(Cc1ccccc1)NC(=O)[C@H](CCC(=O)O)NC(=O)[C@](C)(CCCCN)NC(=O)[C@H](C)NC(=O)[C@H](C)NC(=O)[C@H](CCC(=O)O)NC(=O)CNC(=O)[C@H](CCC(=O)O)NC(=O)[C@H](CC(C)C)NC(=O)[C@](C)(Cc1ccccc1)NC(=O)[C@H](CO)NC(=O)[C@](C)(CO)NC(=O)[C@@H](NC(=O)[C@H](CC(=O)O)NC(=O)[C@H](CO)NC(=O)[C@@H](NC(=O)[C@](C)(Cc1ccccc1)NC(=O)[C@H](CO)NC(=O)CNC(=O)[C@H](CCC(=O)O)NC(=O)C(C)(C)NC(=O)[C@@H](N)Cc1c[nH]cn1)[C@@H](C)O)C(C)C)[C@@H](C)CC)C(C)C)C(C)C)C(=O)NCC(=O)NCC(N)=O) [SEQ ID NO 195] | 27 | 27 | 0.17 | 0.046 | 107 | 27 | 27
2 | H[Aib]EGS[αMeF]TSDV[αMeS]S[αMeF]LEGEAA[αMeK]E[αMeF]IA[αMeF]VVK([Ahx-Ahx-Ahx-Stearoyl])GG-NH2 (N-terminus assumed; SMILES CCCCCCCCCCCCCCCCCC(=O)NCCCCCC(=O)NCCCCCC(=O)NCCCCCC(=O)NCCCC[C@H](NC(=O)[C@@H](NC(=O)[C@@H](NC(=O)[C@](C)(Cc1ccccc1)NC(=O)[C@H](C)NC(=O)[C@@H](NC(=O)[C@](C)(Cc1ccccc1)NC(=O)[C@H](CCC(=O)O)NC(=O)[C@](C)(CCCCN)NC(=O)[C@H](C)NC(=O)[C@H](C)NC(=O)[C@H](CCC(=O)O)NC(=O)CNC(=O)[C@H](CCC(=O)O)NC(=O)[C@H](CC(C)C)NC(=O)[C@](C)(Cc1ccccc1)NC(=O)[C@H](CO)NC(=O)[C@](C)(CO)NC(=O)[C@@H](NC(=O)[C@H](CC(=O)O)NC(=O)[C@H](CO)NC(=O)[C@@H](NC(=O)[C@](C)(Cc1ccccc1)NC(=O)[C@H](CO)NC(=O)CNC(=O)[C@H](CCC(=O)O)NC(=O)C(C)(C)NC(=O)[C@@H](N)Cc1c[nH]cn1)[C@@H](C)O)C(C)C)[C@@H](C)CC)C(C)C)C(C)C)C(=O)NCC(=O)NCC(N)=O) [SEQ ID NO 196] | 26 | 26 | 0.19 | 0.063 | 125 | 26 | 26
3 | H[Aib]EGS[αMeF]TSDV[αMeS]S[αMeF]LEGEAA[αMeK]E[αMeF]IA[αMeF]VVK([γGlu-γGlu-Stearoyl])GG-NH2 (N-terminus assumed; SMILES CCCCCCCCCCCCCCCCCC(=O)N[C@@H](CCC(=O)N[C@@H](CCC(=O)NCCCC[C@H](NC(=O)[C@@H](NC(=O)[C@@H](NC(=O)[C@](C)(Cc1ccccc1)NC(=O)[C@H](C)NC(=O)[C@@H](NC(=O)[C@](C)(Cc1ccccc1)NC(=O)[C@H](CCC(=O)O)NC(=O)[C@](C)(CCCCN)NC(=O)[C@H](C)NC(=O)[C@H](C)NC(=O)[C@H](CCC(=O)O)NC(=O)CNC(=O)[C@H](CCC(=O)O)NC(=O)[C@H](CC(C)C)NC(=O)[C@](C)(Cc1ccccc1)NC(=O)[C@H](CO)NC(=O)[C@](C)(CO)NC(=O)[C@@H](NC(=O)[C@H](CC(=O)O)NC(=O)[C@H](CO)NC(=O)[C@@H](NC(=O)[C@](C)(Cc1ccccc1)NC(=O)[C@H](CO)NC(=O)CNC(=O)[C@H](CCC(=O)O)NC(=O)C(C)(C)NC(=O)[C@@H](N)Cc1c[nH]cn1)[C@@H](C)O)C(C)C)[C@@H](C)CC)C(C)C)C(C)C)C(=O)NCC(=O)NCC(N)=O)C(=O)O)C(=O)O) [SEQ ID NO 192] | 27 | 27 | 0.17 | 0.06 | 114 | 27 | 27
4 | H[Aib]EGS[αMeF]TSDV[αMeS]S[αMeF]LEGEAA[αMeK]E[αMeF]IA[αMeF]VVK([γGlu-Stearoyl])GG-NH2 (N-terminus assumed; SMILES CCCCCCCCCCCCCCCCCC(=O)N[C@@H](CCC(=O)NCCCC[C@H](NC(=O)[C@@H](NC(=O)[C@@H](NC(=O)[C@](C)(Cc1ccccc1)NC(=O)[C@H](C)NC(=O)[C@@H](NC(=O)[C@](C)(Cc1ccccc1)NC(=O)[C@H](CCC(=O)O)NC(=O)[C@](C)(CCCCN)NC(=O)[C@H](C)NC(=O)[C@H](C)NC(=O)[C@H](CCC(=O)O)NC(=O)CNC(=O)[C@H](CCC(=O)O)NC(=O)[C@H](CC(C)C)NC(=O)[C@](C)(Cc1ccccc1)NC(=O)[C@H](CO)NC(=O)[C@](C)(CO)NC(=O)[C@@H](NC(=O)[C@H](CC(=O)O)NC(=O)[C@H](CO)NC(=O)[C@@H](NC(=O)[C@](C)(Cc1ccccc1)NC(=O)[C@H](CO)NC(=O)CNC(=O)[C@H](CCC(=O)O)NC(=O)C(C)(C)NC(=O)[C@@H](N)Cc1c[nH]cn1)[C@@H](C)O)C(C)C)[C@@H](C)CC)C(C)C)C(C)C)C(=O)NCC(=O)NCC(N)=O)C(=O)O) [SEQ ID NO 191] | 28 | 28 | 0.25 | 0.11 | 182 | 28 | 28
5 | H[Aib]EGS[αMeF]TSDV[αMeS]S[αMeF]LEGEAA[αMeK]E[αMeF]IA[αMeF]VVK([Ahx-Stearoyl])GG-NH2 (N-terminus assumed; SMILES CCCCCCCCCCCCCCCCCC(=O)NCCCCCC(=O)NCCCC[C@H](NC(=O)[C@@H](NC(=O)[C@@H](NC(=O)[C@](C)(Cc1ccccc1)NC(=O)[C@H](C)NC(=O)[C@@H](NC(=O)[C@](C)(Cc1ccccc1)NC(=O)[C@H](CCC(=O)O)NC(=O)[C@](C)(CCCCN)NC(=O)[C@H](C)NC(=O)[C@H](C)NC(=O)[C@H](CCC(=O)O)NC(=O)CNC(=O)[C@H](CCC(=O)O)NC(=O)[C@H](CC(C)C)NC(=O)[C@](C)(Cc1ccccc1)NC(=O)[C@H](CO)NC(=O)[C@](C)(CO)NC(=O)[C@@H](NC(=O)[C@H](CC(=O)O)NC(=O)[C@H](CO)NC(=O)[C@@H](NC(=O)[C@](C)(Cc1ccccc1)NC(=O)[C@H](CO)NC(=O)CNC(=O)[C@H](CCC(=O)O)NC(=O)C(C)(C)NC(=O)[C@@H](N)Cc1c[nH]cn1)[C@@H](C)O)C(C)C)[C@@H](C)CC)C(C)C)C(C)C)C(=O)NCC(=O)NCC(N)=O) [SEQ ID NO 194] | 28 | 28 | 0.24 | 0.068 | 154 | 28 | 28
6 | H[Aib]EGS[αMeF]TSDV[αMeS]S[αMeF]LEGEAA[αMeK]E[αMeF]IA[αMeF]VVK([γGlu-γGlu-γGlu-Stearoyl])GG-NH2 (N-terminus assumed; SMILES CCCCCCCCCCCCCCCCCC(=O)N[C@@H](CCC(=O)N[C@@H](CCC(=O)N[C@@H](CCC(=O)NCCCC[C@H](NC(=O)[C@@H](NC(=O)[C@@H](NC(=O)[C@](C)(Cc1ccccc1)NC(=O)[C@H](C)NC(=O)[C@@H](NC(=O)[C@](C)(Cc1ccccc1)NC(=O)[C@H](CCC(=O)O)NC(=O)[C@](C)(CCCCN)NC(=O)[C@H](C)NC(=O)[C@H](C)NC(=O)[C@H](CCC(=O)O)NC(=O)CNC(=O)[C@H](CCC(=O)O)NC(=O)[C@H](CC(C)C)NC(=O)[C@](C)(Cc1ccccc1)NC(=O)[C@H](CO)NC(=O)[C@](C)(CO)NC(=O)[C@@H](NC(=O)[C@H](CC(=O)O)NC(=O)[C@H](CO)NC(=O)[C@@H](NC(=O)[C@](C)(Cc1ccccc1)NC(=O)[C@H](CO)NC(=O)CNC(=O)[C@H](CCC(=O)O)NC(=O)C(C)(C)NC(=O)[C@@H](N)Cc1c[nH]cn1)[C@@H](C)O)C(C)C)[C@@H](C)CC)C(C)C)C(C)C)C(=O)NCC(=O)NCC(N)=O)C(=O)O)C(=O)O)C(=O)O) [SEQ ID NO 193] | 26 | 26 | 0.33 | 0.095 | 213 | 26 | 26
